Measurements published in US20140212436A1 (Xencor, published 2014).

T1: recombinant human FcγRIIb protein (human, UniProt P31994 46-217)
T1 construct: Bought; injected as analyte in Biacore; also called CD32b
T1 sequence (looked up): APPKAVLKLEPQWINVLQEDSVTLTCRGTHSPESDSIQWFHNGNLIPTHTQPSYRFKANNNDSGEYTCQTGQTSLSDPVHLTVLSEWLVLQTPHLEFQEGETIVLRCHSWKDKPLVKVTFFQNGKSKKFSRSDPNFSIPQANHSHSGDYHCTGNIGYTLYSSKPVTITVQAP


How the values were obtained:
[1] = target: T1, recombinant human FcγRIIb protein; assay: Biacore, antibody captured on protein A
Experimental: (§1) Variants were tested for receptor affinity using Biacore technology, also referred to as Biacore herein, a surface plasmon resonance (SPR) based technology for studying biomolecular interactions in real time. SPR measurements were performed using a Biacore 3000 instrument (Biacore, Piscataway, N.J.). A […] (Pierce Biotechnology) CM5 biosensor chip (Biacore) was generated using a standard primary amine coupling protocol. All measurements were performed using HBS-EP buffer (10 mM HEPES pH 7.4, 0.15 M NaCl, 3 mM EDTA, 0.005% vol/vol surfactant P20, Biacore). Antibodies at 20 nM or 50 nM in HBS-EP buffer were immobilized on the protein A/G surface and FcγRs were injected. After each cycle, the surface was regenerated by injecting glycine buffer (10 mM, pH 1.5). Data were processed by zeroing time and response before the injection of FcγR and by subtracting appropriate nonspecific signals (response of reference channel and injection of running buffer). Kinetic analyses were performed by global fitting of binding data with a 1:1 Langmuir binding model using BIAevaluation software (Biacore).
(§2) DNA encoding the Fc region of IgE, which contains the binding site for the anti-IgE antibodies used, was synthesized (Blue Heron Biotechnologies) and subcloned into the pTT5 vector. […] SPR measurements were performed using the protein A/antibody capture method described above, except that analyte was either FcγRIIb or the Fc region of IgE. Data acquisition and fitting are as described above.

[2] = target: T1, recombinant human FcγRIIb protein; assay: Biacore
Experimental: as §1
DNA encoding the Fc region of IgE, which contains the binding site for the anti-IgE antibodies used, was synthesized (Blue Heron Biotechnologies) and subcloned into the pTT5 vector. […]

[3] = target: T2, Fc region of IgE (UniProt P01854-1 105-428, limits assumed); assay: Biacore, antibody captured on protein A, IgE Fc as analyte
T2 construct: domain: Fc region of IgE; also called IgE Fc
T2 sequence (P01854 other isoform, or with tags, fused parts or gaps limits assumed): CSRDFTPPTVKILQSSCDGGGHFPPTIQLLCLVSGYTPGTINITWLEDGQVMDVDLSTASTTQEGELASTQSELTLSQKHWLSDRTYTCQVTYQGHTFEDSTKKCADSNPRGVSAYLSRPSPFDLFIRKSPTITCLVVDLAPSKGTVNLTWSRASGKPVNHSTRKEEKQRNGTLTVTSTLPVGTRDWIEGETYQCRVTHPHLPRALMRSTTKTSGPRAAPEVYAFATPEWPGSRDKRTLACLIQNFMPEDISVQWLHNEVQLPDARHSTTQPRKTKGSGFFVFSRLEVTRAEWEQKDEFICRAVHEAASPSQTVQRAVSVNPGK
Experimental: as §1, §2

| Kd [1] [nM] | Fold [2] | Kd [3] [nM] | binding result [1] | Binder |
| --- | --- | --- | --- | --- |
| 2000 | 1 | 0.061 |  | H1L1_MaE11 (novel humanized version of MaE11, anti-IgE antibody) (antibody, copies: 2 + 2) heavy: not shown light: DIQLTQSPSSLSASVGDRVTITCRASQSVDYDGDSYMNWYQQKPGQPPKLLIYAASYLGSEIPARFSGSGSGTDFTLTISSLQPEDFATYYCQQSHEDPYTFGAGTKLEIKRTVAAPSVFIFPPSDEQLKSGTASVVCLLNNFYPREAKVQWKVDNALQSGNSQESVTEQDSKDSTYSLSSTLTLSKADYEKHKVYACEVTHQGLSSPVTKSFNRGEC |
|  |  | 0.064 | no binding | MaE11_H1L1_IgG1_G236R/L328R (antibody, anti-IgE; also called H1L1 MaE11 Fc-KO) heavy: not shown light: DIQLTQSPSSLSASVGDRVTITCRASQSVDYDGDSYMNWYQQKPGQPPKLLIYAASYLGSEIPARFSGSGSGTDFTLTISSLQPEDFATYYCQQSHEDPYTFGAGTKLEIKRTVAAPSVFIFPPSDEQLKSGTASVVCLLNNFYPREAKVQWKVDNALQSGNSQESVTEQDSKDSTYSLSSTLTLSKADYEKHKVYACEVTHQGLSSPVTKSFNRGEC |
| 5.6 | 366 | 0.063 |  | MaE11_H1L1_IgG1_S267E/L328F (antibody, anti-IgE) heavy: not shown light: DIQLTQSPSSLSASVGDRVTITCRASQSVDYDGDSYMNWYQQKPGQPPKLLIYAASYLGSEIPARFSGSGSGTDFTLTISSLQPEDFATYYCQQSHEDPYTFGAGTKLEIKRTVAAPSVFIFPPSDEQLKSGTASVVCLLNNFYPREAKVQWKVDNALQSGNSQESVTEQDSKDSTYSLSSTLTLSKADYEKHKVYACEVTHQGLSSPVTKSFNRGEC |
